Reference: patent publication US10583167B2, “Mammalian glucosidase inhibitors, methods for their use and pharmaceutical compositions thereof” (THE UNIVERSITY OF BRITISH COLUMBIA, priority 2015, dated 2020)
“Also recorded” adds a separate entry of the source. Bridges are numbered along the chain shown (N, C = ends).

Columns and labels:
mammalian alpha-amylase = molecular target: T1, mammalian alpha-amylase (Homo sapiens, UniProt P04746); assay: Inhibitory activity of truncated and fusion peptides; assay type: biochemical; details: for Inhibitory Activity: truncated peptides
T1 sequence (P04746 16-511): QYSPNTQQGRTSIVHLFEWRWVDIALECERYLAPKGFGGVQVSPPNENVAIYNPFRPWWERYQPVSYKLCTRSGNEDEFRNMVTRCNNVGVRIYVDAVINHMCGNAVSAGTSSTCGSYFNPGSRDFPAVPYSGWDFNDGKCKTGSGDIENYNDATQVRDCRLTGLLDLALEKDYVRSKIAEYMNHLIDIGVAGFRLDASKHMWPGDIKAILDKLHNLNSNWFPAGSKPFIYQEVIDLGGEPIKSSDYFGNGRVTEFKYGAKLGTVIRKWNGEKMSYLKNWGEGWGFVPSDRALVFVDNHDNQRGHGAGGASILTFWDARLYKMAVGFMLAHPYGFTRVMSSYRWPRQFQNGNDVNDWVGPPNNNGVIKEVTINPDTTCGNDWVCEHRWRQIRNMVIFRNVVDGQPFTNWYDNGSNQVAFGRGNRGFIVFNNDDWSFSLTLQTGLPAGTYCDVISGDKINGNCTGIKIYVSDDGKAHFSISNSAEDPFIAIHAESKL

[1] = molecular target: T2, human pancreatic α-amylase (HPA) (Homo sapiens, UniProt P04746); assay: Kinetic analysis of HPA inhibition (CNP-G3 hydrolysis, Morrison / Michaelis-Menten); assay type: biochemical; details: for Ki / inhibition constant estimated in preliminary tests: preliminary inhibitory studies with remaining material
T2 construct: made in house; host or cells: Pichia pastoris
T2 sequence (P04746 16-511): T1 sequence (P04746 16-511)
Protocol: A detailed protocol of this expression can be found in the work done by Rydberg et al. (39) Expression was carried out in Pichia pastoris. Colonies were grown in 600 mL BMGY media at 30° C. 200 RPM. 20 mL of the overnight culture was added to 600 mL BMGY. After 16 hours the cells were transferred to 300 mL BMMY. After one day 2 mL of 50% methanol was added. The culture was left overnight. The culture supernatant was collected and purified via Phenyl Sepharose™ and Hitrap Q™ columns. Deglycosylation was performed with EndoF™.
Reactions were run with a final [CNPG3]=5 mM. […] Kiapp was then used to calculate Ki.
Given the low-nM estimate of Ki for the natural extract, kinetic analysis could not be pursued through standard Michaelis-Menten kinetics (22). In this study, inhibition constants below 50 nM were determined using the Morrison method: inhibition dose response curves at [S]=KM were constructed for varying enzyme concentrations (23, 24). The resulting data (FIG. 2A) was fit to the Morrison equation 1 to determine Ki,app, which could be converted to Ki through equation 2, which is the relationship between these values for competitive inhibition.

Almond β-glucosidase = assay: Inhibitory specificity: kinetic analysis; assay type: biochemical; details: up to 1 μM
Protocol: (§1) Assays were performed on a Varian Cary 300™ UV/Vis spectrophotometer. The release of 2-chloro-nitrophenol resulting from the amylase catalyzed hydrolysis of 2-chloro-p-nitrophenyl-α-D-maltotrioside was monitored at 400 nm. Reactions were run at 30° C. in 50 mM sodium phosphate, 100 mM sodium chloride (pH 7.0). Reactions were monitored over 5 minutes to measure the initial reaction rate. […] Reactions were run with a final [CNPG3]=5 mM. […] Up to 5 different enzyme concentrations were used, ranging from 1 nM to 10 nM. v/vo was plotted against [I] for each enzyme concentration to form a series of dose response curves. […] Kiapp was then used to calculate Ki. […] Details of this process can be found in the work done by Tarling et al. (33). After kinetic analysis with HPA, nine additional enzymes were tested against helianthamide. Concentrations of up to 1 μM of Helianthamide were used to assess for inhibition.
(§2) Inhibition of nine other glycosidases was explored (TABLE 4).

[2] = molecular target: Bacillus licheniformis α-amylase (Bacillus licheniformis, UniProt P06278); assay: Inhibitory specificity: kinetic analysis; assay type: biochemical; details: up to 1 μM
Protocol: as §1, §2

[3] = molecular target: Bovine liver β-galactosidase; assay: Inhibitory specificity: kinetic analysis; assay type: biochemical; details: up to 1 μM
Protocol: as §1, §2

[4] = molecular target: Brewer's yeast α-glucosidase; assay: Inhibitory specificity: kinetic analysis; assay type: biochemical; details: up to 1 μM
Protocol: as §1, §2

[5] = molecular target: Butyrivibrio fibrisolvens α-amylase B; assay: Inhibitory specificity: kinetic analysis; assay type: biochemical; details: up to 1 μM
Protocol: as §1, §2

[6] = molecular target: T3, Green coffee bean α-galactosidase (Coffea arabica, UniProt Q42656); assay: Inhibitory specificity: kinetic analysis; assay type: biochemical; details: up to 1 μM
T3 construct: Green coffee bean α-galactosidase; from tissue; host or cells: green coffee beans
Protocol: as §1, §2

[7] = molecular target: Human maltase-glucoamylase (Homo sapiens, UniProt O43451); assay: Inhibitory specificity: kinetic analysis; assay type: biochemical; details: up to 1 μM
Protocol: as §1, §2

Jack bean α-mannosidase = molecular target: T4, Jack bean α-mannosidase (Canavalia ensiformis, UniProt C0HJB3); assay: Inhibitory specificity: kinetic analysis; assay type: biochemical; details: up to 1 μM
T4 construct: Jack bean α-mannosidase; from tissue; host or cells: jack bean
T4 sequence (C0HJB3 1-981): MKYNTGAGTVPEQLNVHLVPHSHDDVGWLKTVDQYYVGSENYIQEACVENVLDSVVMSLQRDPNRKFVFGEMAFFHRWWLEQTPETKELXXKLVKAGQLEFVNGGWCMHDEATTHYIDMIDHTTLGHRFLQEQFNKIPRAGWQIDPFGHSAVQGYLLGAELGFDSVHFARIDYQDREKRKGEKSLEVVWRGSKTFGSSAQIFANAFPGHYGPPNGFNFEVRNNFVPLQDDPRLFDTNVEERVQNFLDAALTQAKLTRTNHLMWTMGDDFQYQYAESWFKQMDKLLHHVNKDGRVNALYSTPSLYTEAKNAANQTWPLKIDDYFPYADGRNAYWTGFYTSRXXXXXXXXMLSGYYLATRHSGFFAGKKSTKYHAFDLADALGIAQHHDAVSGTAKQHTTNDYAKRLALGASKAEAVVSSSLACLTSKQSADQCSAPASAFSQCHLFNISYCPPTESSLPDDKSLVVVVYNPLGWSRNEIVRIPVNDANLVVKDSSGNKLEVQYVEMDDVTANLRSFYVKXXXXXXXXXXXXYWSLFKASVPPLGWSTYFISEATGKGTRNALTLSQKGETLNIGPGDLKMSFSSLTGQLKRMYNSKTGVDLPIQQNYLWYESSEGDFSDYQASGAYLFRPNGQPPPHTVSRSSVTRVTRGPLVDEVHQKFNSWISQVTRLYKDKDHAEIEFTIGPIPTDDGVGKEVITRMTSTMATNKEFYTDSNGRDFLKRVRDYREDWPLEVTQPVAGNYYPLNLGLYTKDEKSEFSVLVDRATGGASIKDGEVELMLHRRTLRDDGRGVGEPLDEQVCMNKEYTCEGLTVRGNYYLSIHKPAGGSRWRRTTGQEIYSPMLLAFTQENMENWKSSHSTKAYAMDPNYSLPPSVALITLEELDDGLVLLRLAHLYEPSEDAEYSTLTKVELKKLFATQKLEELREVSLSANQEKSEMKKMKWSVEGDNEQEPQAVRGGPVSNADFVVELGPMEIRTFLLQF
Protocol: as §1, §2

[8] = molecular target: Roseburia inulinivorans α-amylase A; assay: Inhibitory specificity: kinetic analysis; assay type: biochemical; details: up to 1 μM
Protocol: as §1, §2

[9] = test system: trypsin, chymotrypsin, proteinase K, and Lys-C
[10] = 11M HCl at 37° C. for four days, HPLC
Protocol: The sample was diluted and neutralized before desalting by C18 reverse phase chromatography. The peptide mixture was injected into an Agilent™ 6460 QQQ LC/MS mass spectrometer. Elution and MS/MS analysis was carried out over a 40-minute period. A script was written to predict all possible fragments for the helianthamide sequence in the event of random hydrolysis and was used to analyze the resulting MS and MS/MS peaks.
Intact peptide was incubated in 11M HCl at 37° C. for four days.

[11] = molecular target: T2, human pancreatic α-amylase (HPA); details: from parallel screen; read-out: Ki against HPA; cited from earlier work

T3 sequence (Q42656 16-378): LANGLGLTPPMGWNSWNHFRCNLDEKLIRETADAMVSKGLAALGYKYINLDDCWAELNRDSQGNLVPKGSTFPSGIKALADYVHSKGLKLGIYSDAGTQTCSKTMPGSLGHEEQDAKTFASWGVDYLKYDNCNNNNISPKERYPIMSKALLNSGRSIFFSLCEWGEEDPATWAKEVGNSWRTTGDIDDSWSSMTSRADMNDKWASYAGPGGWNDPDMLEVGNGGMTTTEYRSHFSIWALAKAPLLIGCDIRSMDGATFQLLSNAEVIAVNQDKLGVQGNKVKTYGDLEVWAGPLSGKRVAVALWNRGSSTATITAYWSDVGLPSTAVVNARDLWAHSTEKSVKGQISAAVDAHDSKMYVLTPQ
Chain of Bacillus licheniformis α-amylase (P06278 30-512): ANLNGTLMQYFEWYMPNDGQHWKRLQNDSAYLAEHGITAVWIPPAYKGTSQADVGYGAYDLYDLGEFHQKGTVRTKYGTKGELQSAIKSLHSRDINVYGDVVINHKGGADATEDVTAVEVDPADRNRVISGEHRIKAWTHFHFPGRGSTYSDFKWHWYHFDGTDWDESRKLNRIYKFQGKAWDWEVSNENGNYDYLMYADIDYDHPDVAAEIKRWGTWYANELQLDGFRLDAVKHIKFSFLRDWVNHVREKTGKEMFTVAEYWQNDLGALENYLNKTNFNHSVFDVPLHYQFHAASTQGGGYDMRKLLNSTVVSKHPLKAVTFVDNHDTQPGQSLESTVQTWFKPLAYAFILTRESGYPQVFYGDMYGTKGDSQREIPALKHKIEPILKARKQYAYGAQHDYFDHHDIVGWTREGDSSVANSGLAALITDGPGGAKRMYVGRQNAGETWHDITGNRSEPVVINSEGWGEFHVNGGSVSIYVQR
Chain of Human maltase-glucoamylase (O43451 whole entry): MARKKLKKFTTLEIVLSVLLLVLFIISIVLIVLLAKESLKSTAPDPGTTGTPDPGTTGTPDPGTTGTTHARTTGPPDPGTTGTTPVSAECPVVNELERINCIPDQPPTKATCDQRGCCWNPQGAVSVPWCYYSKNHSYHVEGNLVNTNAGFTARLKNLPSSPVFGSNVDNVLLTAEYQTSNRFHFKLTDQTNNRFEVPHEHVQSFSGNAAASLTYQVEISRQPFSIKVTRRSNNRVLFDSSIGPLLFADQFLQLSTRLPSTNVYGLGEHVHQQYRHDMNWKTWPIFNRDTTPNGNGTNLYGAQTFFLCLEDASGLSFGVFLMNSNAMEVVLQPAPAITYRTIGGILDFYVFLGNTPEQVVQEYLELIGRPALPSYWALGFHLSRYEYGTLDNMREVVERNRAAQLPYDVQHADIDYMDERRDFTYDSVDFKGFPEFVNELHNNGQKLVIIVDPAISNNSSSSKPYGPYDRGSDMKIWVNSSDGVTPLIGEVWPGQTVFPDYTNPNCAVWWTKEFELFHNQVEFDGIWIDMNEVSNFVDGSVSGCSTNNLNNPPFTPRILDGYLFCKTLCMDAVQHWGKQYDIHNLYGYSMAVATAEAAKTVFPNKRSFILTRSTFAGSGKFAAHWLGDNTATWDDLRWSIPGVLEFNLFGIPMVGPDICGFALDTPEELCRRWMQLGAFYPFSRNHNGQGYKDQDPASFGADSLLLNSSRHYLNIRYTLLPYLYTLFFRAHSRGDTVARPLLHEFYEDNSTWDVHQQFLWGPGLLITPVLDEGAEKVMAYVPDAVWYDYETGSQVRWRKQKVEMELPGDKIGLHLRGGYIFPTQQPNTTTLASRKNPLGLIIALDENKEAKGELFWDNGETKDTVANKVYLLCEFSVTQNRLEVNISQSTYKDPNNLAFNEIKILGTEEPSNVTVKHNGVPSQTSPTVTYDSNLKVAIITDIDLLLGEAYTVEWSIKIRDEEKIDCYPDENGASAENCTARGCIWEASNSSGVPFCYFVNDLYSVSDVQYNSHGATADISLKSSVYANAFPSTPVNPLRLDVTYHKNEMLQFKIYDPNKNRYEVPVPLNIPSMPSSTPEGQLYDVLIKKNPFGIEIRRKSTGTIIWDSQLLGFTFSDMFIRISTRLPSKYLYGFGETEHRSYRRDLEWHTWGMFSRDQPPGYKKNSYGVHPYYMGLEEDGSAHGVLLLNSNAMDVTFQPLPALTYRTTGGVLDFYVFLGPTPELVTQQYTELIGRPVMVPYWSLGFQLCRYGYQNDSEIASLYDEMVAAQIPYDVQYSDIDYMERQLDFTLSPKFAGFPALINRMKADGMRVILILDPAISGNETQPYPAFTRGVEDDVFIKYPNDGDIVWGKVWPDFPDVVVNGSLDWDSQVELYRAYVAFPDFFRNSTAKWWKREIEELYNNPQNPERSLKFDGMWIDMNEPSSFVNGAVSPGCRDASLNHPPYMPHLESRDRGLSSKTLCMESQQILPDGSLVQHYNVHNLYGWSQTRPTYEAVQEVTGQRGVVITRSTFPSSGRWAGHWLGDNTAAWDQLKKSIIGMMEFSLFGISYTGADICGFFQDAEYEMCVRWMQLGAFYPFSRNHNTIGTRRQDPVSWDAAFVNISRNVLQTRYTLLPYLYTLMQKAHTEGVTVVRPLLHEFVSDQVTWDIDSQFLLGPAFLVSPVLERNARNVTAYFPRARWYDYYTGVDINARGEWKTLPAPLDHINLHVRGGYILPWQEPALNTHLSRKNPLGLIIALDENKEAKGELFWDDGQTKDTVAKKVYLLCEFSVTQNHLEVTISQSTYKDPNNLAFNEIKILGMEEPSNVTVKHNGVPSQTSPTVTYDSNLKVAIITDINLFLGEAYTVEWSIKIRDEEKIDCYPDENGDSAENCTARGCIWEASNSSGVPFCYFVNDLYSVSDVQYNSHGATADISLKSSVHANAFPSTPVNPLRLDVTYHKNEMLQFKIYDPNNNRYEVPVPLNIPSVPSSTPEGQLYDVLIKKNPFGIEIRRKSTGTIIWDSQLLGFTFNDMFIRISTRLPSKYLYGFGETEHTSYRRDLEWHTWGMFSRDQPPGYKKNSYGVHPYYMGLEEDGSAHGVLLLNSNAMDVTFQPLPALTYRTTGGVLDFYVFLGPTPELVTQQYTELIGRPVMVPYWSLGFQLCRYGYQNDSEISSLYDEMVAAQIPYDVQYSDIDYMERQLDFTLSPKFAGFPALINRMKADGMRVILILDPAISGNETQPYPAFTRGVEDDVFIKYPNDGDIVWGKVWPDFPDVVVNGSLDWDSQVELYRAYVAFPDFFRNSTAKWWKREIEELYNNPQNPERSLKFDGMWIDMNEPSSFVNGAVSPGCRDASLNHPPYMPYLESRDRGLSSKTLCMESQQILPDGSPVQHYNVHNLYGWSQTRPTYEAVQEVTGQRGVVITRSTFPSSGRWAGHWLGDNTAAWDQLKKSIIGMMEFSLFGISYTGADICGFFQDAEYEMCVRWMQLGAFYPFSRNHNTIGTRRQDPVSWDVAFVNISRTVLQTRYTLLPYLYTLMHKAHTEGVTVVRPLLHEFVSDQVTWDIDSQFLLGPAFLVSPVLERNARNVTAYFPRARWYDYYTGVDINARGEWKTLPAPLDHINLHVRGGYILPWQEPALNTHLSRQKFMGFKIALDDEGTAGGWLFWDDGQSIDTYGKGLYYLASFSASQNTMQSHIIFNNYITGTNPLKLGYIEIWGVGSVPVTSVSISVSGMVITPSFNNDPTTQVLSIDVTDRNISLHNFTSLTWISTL

With “Ac-CYIYHGVSGIC-NH2 (disulfide 1-11 (inferred); listed as Stichodactyla helianthus) [truncated peptide]” the “Inhibitory Activity” value (mammalian alpha-amylase) was 30 µM.

With “Ac-YIYH-NH2 (listed as Stichodactyla helianthus) [truncated peptide, Ac represents the acetyl functional group]” the “mammalian alpha-amylase inhibitory activity (in words)” value (mammalian alpha-amylase) was “did not have detectable” and the “Inhibitory Activity” value (mammalian alpha-amylase) was “no inhibition detected”.

For “Ac-YIYHGVSGI-NH2 (listed as Stichodactyla helianthus) [truncated peptide]”, the “Inhibitory Activity” value (mammalian alpha-amylase) was 25 µM.

For “ESGNSCYIYHGVSGICKASCAEDEKAMAGMGVCEGHLCCYKTPW (listed as Stichodactyla helianthus) [helianthamide]”, the “Ki / inhibition constant estimated in preliminary tests” value [1] was “low-nM”, the “Ki / inhibition constant estimated in preliminary tests” value ([1]; listed as Helianthamide) was “low nanomolar; also recorded: low nano-molar” and the “mode of HPA inhibition” value ([1]; preliminary tests, natural material) was “reversible competitive inhibition”. For the same substance, the Ki (Almond β-glucosidase) was > 1000 nM, the Ki [2] was > 1000 nM and the Ki [3] was > 1000 nM. The Ki [4] was > 1000 nM, the Ki [5] was > 1000 nM and the Ki [6] was > 1000 nM. The Ki [7] was > 1000 nM, the Ki (Jack bean α-mannosidase) was > 1000 nM and the Ki [8] was > 1000 nM. For the same substance, the resistance to proteolysis [9] was “resistant to proteolysis” and the “intact peptide remaining after acid incubation” value [10] was “a large proportion of intact peptide remained”.

In the case of Montbretin A, the Ki [11] is given as 8 nM.
